Experimental data published in the supplement of paper PMC11246515.
± gives the standard deviation of the averaged measurements.

Experiment: total protein half-life in vivo (active degradation + dilution); higher = more stable protein
[1] = E. coli NCM3722 delta-clpP delta-lon delta-hslV, growth: N-lim chemostat, doubling time 6 h
[2] = E. coli NCM3722 delta-hslV, growth: N-lim chemostat, doubling time 6 h
[3] = E. coli NCM3722 delta-lon, growth: N-lim chemostat, doubling time 6 h
[4] = E. coli NCM3722 delta-smpB, growth: N-lim chemostat, doubling time 6 h
[5] = wild type E. coli NCM3722, growth: C-lim chemostat, doubling time 3 h
[6] = wild type E. coli NCM3722, growth: C-lim chemostat, doubling time 6 h
[7] = wild type E. coli NCM3722, growth: C-lim chemostat, doubling time 12 h
[8] = wild type E. coli NCM3722, growth: N-lim chemostat, doubling time 6 h
[9] = wild type E. coli NCM3722, growth: N-lim chemostat, doubling time 12 h
[10] = wild type E. coli NCM3722, growth: P-lim chemostat, doubling time 6 h
[11] = wild type E. coli NCM3722, growth: P-lim chemostat, doubling time 12 h
[12] = E. coli NCM3722 delta-clpP, growth: N-lim chemostat, doubling time 6 h

| Sequence | total protein half-life in vivo [1] [h] | total protein half-life in vivo [2] [h] | total protein half-life in vivo [3] [h] | total protein half-life in vivo [4] [h] | total protein half-life in vivo [5] [h] | total protein half-life in vivo [6] [h] | total protein half-life in vivo [7] [h] | total protein half-life in vivo [8] [h] | total protein half-life in vivo [9] [h] | total protein half-life in vivo [10] [h] | total protein half-life in vivo [11] [h] | total protein half-life in vivo [12] [h] |
| --- | --- | --- | --- | --- | --- | --- | --- | --- | --- | --- | --- | --- |
| MNKLIELRRAKRLALSLLLIAAATFVVTLFLPPNFWVSGVKAIAEAAMVGALADWFAVVALFRRVPIPIISRHTAIIPRNKDRIGENLGQFVQEKFLDTQSLVALIRRHEPALLIGNWFSQPENARRVGQHLLQIMSGFLELTDDARIQRLLKRAVHRAIDKVDLSGTSALMLESMTKNDRHQVLLDTLIAQLIALLQRDKSRKFIAQQIVRWLESEHPLKAKILPTEWLGEHSAELVSDAVNSLLDDISRDRAHQIRHAFDRATFALIDKLKNDPEMAARADAVKSYLKEDEAFNRYLSELWGDLREWLKVDINSEDSRVKERIARAGQWFGETLIADDALRASLNGHLEQAAHRVAPEFSAFLTRHISDTVKSWDARDMSRQIELNIGKDLQFIRVNGTLVGGCIGLILYLLSQLPALFPLGNF | 5.72 ± 0.23 | 6.12 ± 0.14 | 5.6 ± 0.16 | 5.794 ± 0.016 | 3.17 ± 0.071 | 5.3 ± 0.096 | 12.3 ± 2.3 | 6.365 ± 0.03 | 12.37 ± 0.058 | 5.7 ± 0.39 | 12.4 ± 1.6 |  |
| MNKLQSYFIASVLYVMTPHAFAQGTVTIYLPGEQQTLSVGPVENVVQLVTQPQLRDRLWWPGALLTDSAAKAKALKDYQHVMAQLASWEAEADDDVAATIKSVRQQLLNLNITGRLPVKLDPDFVRVDENSNPPLVGDYTLYTVQRPVTITLLGAVSGAGQLPWQAGRSVTDYLQDHPRLAGADKNNVMVITPEGETVVAPVALWNKRHVEPPPGSQLWLGFSAHVLPEKYADLNDQIVSVLTQRVPD |  |  |  |  |  |  |  |  | 7.71 |  |  |  |
| MNKNRGFTPLAVVLMLSGSLALTGCDDKQAQQGGQQMPAVGVVTVKTEPLQITTELPGRTSAYRIAEVRPQVSGIILKRNFKEGSDIEAGVSLYQIDPATYQATYDSAKGDLAKAQAAANIAQLTVNRYQKLLGTQYISKQEYDQALADAQQANAAVTAAKAAVETARINLAYTKVTSPISGRIGKSNVTEGALVQNGQATALATVQQLDPIYVDVTQSSNDFLRLKQELANGTLKQENGKAKVSLITSDGIKFPQDGTLEFSDVTVDQTTGSITLRAIFPNPDHTLLPGMFVRARLEEGLNPNAILVPQQGVTRTPRGDATVLVVGADDKVETRPIVASQAIGDKWLVTEGLKAGDRVVISGLQKVRPGVQVKAQEVTADNNQQAASGAQPEQSKS [P0AE06] | 5.95 ± 0.32 | 6.3 ± 0.28 | 6.62 ± 0.54 | 5.93 ± 0.21 | 2.921 ± 0.024 | 5.84 ± 0.46 | 12.1 ± 0.26 | 6.134 ± 0.05 | 13.33 ± 0.11 | 5.814 ± 0.041 | 12.5 ± 0.88 |  |
| MNKSQLIDKIAAGADISKAAAGRALDAIIASVTESLKEGDDVALVGFGTFAVKERAARTGRNPQTGKEITIAAAKVPSFRAGKALKDAVN [P0ACF4] | 7.01 ± 0.69 | 5.94 ± 0.61 | 6.96 ± 0.96 | 5.51 ± 0.24 | 2.88 ± 0.054 | 5.1 ± 0.35 | 7.44 ± 0.28 | 5.035 ± 0.04 | 10.813 ± 0.0038 | 4.6 ± 0.72 | 10.8 ± 0.92 |  |
| MNKTITALAIMMASFAANASVLPETPVPFKSGTGAIDNDTVYIGLGSAGTAWYKLDTQAKDKKWTALAAFPGGPRDQATSAFIDGNLYVFGGIGKNSEGLTQVFNDVHKYNPKTNSWVKLMSHAPMGMAGHVTFVHNGKAYVTGGVNQNIFNGYFEDLNEAGKDSTAIDKINAHYFDKKAEDYFFNKFLLSFDPSTQQWSYAGESPWYGTAGAAVVNKGDKTWLINGEAKPGLRTDAVFELDFTGNNLKWNKLAPVSSPDGVAGGFAGISNDSLIFAGGAGFKGSRENYQNGKNYAHEGLKKSYSTDIHLWHNGKWDKSGELSQGRAYGVSLPWNNSLLIIGGETAGGKAVTDSVLITVKDNKVTVQN | 5.85 ± 0.22 | 5.99 ± 0.77 | 6.24 ± 0.61 | 6.27 ± 1.1 | 3.12 ± 0.2 | 6.33 ± 0.044 | 12.6 ± 1.2 | 6.32 ± 0.1 | 11.5 ± 1.4 | 5.97 ± 0.41 | 13.9 ± 1.4 |  |
| MNKTQLIDVIAEKAELSKTQAKAALESTLAAITESLKEGDAVQLVGFGTFKVNHRAERTGRNPQTGKEIKIAAANVPAFVSGKALKDAVK [P0ACF0] | 7.47 ± 0.039 | 5.45 ± 0.31 | 6.06 ± 0.22 | 5.39 ± 0.12 | 3.04 ± 0.19 | 5.55 ± 0.72 | 10 ± 0.23 | 5.15 ± 0.27 | 11.91 ± 0.1 | 4.73 ± 0.92 | 11.1 ± 1.5 | 6.29 ± 0.51 |
| MNKVVLLCRPGFEKECAAEITDKAGQREIFGFARVKENAGYVIYECYQPDDGDKLIRELPFSSLIFARQWFVVGELLQHLPPEDRITPIVGMLQGVVEKGGELRVEVADTNESKELLKFCRKFTVPLRAALRDAGVLANYETPKRPVVHVFFIAPGCCYTGYSYSNNNSPFYMGIPRLKFPADAPSRSTLKLEEAFHVFIPADEWDERLANGMWAVDLGACPGGWTYQLVKRNMWVYSVDNGPMAQSLMDTGQVTWLREDGFKFRPTRSNISWMVCDMVEKPAKVAALMAQWLVNGWCRETIFNLKLPMKKRYEEVSHNLAYIQAQLDEHGINAQIQARQLYHDREEVTVHVRRIWAAVGGRRDER [P0ADR6] | 5.236 ± 0.0068 | 4.77 ± 0.28 | 5.75 ± 1 | 4.81 ± 0.15 | 3.45 ± 0.77 | 5.93 ± 0.44 | 10.2 ± 0.49 | 4.78 ± 0.28 | 8.148 ± 0.00089 | 5.72 ± 0.16 | 11.6 ± 0.63 | 4.78 ± 0.26 |
